According to publication PMC3139367 (Journal of molecular biology, 2011):
Numbering of substitutions follows the chain as printed. Read-outs that look alike come from different tables or passages of the source.

Assays:
[1] = biological target: p300/CBP KIX (UniProt Q92793); conditions: cited from earlier work
[2] = biological target: T1, GST-KIX (aa 588-683, from mouse CBP) (mouse, UniProt P45481 588-683); assay: native gel or EMSA
[3] = biological target: T1, GST-KIX (aa 588-683, from mouse CBP); assay: native gel or EMSA; remark: listed apart in the source
[4] = biological target: untagged KIX (aa 587-679, from mouse CBP) (mouse, UniProt P45481 587-679); assay: cross-linking
Sequence of untagged KIX (aa 587-679, from mouse CBP) (P45481 587-679): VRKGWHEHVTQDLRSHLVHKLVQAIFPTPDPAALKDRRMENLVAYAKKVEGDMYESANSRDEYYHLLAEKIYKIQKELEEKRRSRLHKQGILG

T1 sequence (P45481 588-683): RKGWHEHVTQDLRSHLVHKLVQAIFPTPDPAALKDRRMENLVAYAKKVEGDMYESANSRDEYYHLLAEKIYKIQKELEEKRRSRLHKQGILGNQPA
Sequence of p300/CBP KIX (Q92793 587-666): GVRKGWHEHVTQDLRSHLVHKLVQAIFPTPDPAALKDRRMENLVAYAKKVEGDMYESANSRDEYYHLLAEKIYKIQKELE

Molecule: CREB (from UniProt P16220)
- Kd [1]: 108000 nM

B1: Gal4-HBZ-AD wt (Gal4-DBD aa 1-147 fused to the N-terminus of HBZ-AD aa 1-77) (domain or fragment)
chain: MAASGLFRCLPVSCPEDLLVEELVDGLLSLEEELKDKEEEEAVLDGLLSLEEESRGRLRRGPPGEKAPPRGETHRDR
- Kd [2]: 3 ± 0.5 nM

B2: Gal4-HBZ-Mut-AD1 (domain or fragment)
chain: B1 chain with L27A, L28A
- Kd [3]: 800 nM

B3: Gal4-HBZ-Mut-AD2 (domain or fragment)
chain: B1 chain with L47A, L48A
- Kd [3]: 180 nM

B4: HBZ-AD wt (aa 1-77, without the Gal4-DBD fusion) (domain or fragment)
chain: B1 chain
- stoichiometry N [4]: 1
